Tests used:
[1] = target: the molecule itself; assay: SEC-MALS; full-length P0 in 0.1% DPC micelles, Superdex 200, 250 mM sodium phosphate pH 8.0, 1 mM EDTA; protein conjugate analysis
[2] = target: the molecule itself; assay: SEC-MALS; full-length P0 in 0.1% LDAO micelles, Superdex 200, 250 mM sodium phosphate pH 8.0, 1 mM EDTA; protein conjugate analysis

B1: full-length myelin protein zero (P0) from bovine peripheral myelin (natural protein, UniProt P10522 29-248, looked up)
chain: AIVVYTDKEVHGAVGSQVTLYCSFWSSEWVSDDLSFTWRYQPEGGRDAISIFHYAKGQPYIDEVGTFKERIQWVGDPHRKDGSIVIHNLDYGDNGTFTCDVKNPPDIVGKTSQVTLYVFEKVPTRYGVVLGAVIGGVLGVVLLALLLFYLIRYCWLRRQAALQRRLSAMEKGKLHKTAKDASKRGRQTPVLYAMLDHSRSTKAASEKKTKGLGESRKDKK
modifications: N-linked glycan structures belonging to hybrid types
notes: myelin protein zero (P0, MPZ), bovine, native protein from the raft fraction of peripheral myelin; Oligomeric state depended on detergent: tetramer in DPC, dimer in LDAO; also called MPZ; full-length P0
stoichiometry N [1]: 4
stoichiometry N [2]: 2

Source: PMC6345808, “Molecular structure and function of myelin protein P0 in membrane stacking” (Scientific Reports, 2019)
